Experiments:
[1] = Bioavailability of FITC-labeled SOCS3 recombinant proteins after IV injection (PBMCs, splenocytes, hepatocytes, tissue sections); format: in vivo, ICR mice
Description: To investigate BA of the iCP-SOCS3 (HM165S3B) recombinant proteins, ICR mice (Doo-Yeol Biotech Co. Ltd., Seoul, Korea) were intravenous (IV) injected with 600 μg/head of 10 μM FITC (Fluorescein isothiocyanate, SIGMA, USA)-labeled SOCS3 recombinant proteins (HS3B, HM165S3B) and after 15 min, 30 min, 1H, 2H, 4H, 8H, 12H, 16H, 24H, 36H, 48H, mice of each group were sacrificed. From the mice, peripheral blood mononuclear cells (PBMCs), splenocytes, and hepatocytes were separated.
Further, the spleen was removed and washed with PBS, and then placed on a dry ice and embedded in an O.C.T. compound (Sakura). After cryosectioning at 20 μm, tissue distributions of fluorescence-labeled-SOCS3 proteins in different organs was analyzed by fluorescence microscopy (Carl Zeiss, Gottingen, Germany).
After anesthesia with ether, ophthalmectomy was performed and the blood was collected therefrom using a 1 ml syringe. The collected blood was immediately put in an EDTA tube and mixed well. The blood was centrifuged at 4,000 rpm and 4° C. for 5 minutes, and plasma was discarded and only buffy coat was collected in a new microtube. 0.5 ml of RBC lysis buffer (Sigma) was added thereto, followed by vortexing. The microtube was left at room temperature for 5 minutes, and then centrifuged at 4,000 rpm and 4° C. for 5 minutes. 0.3 ml of PBS was added to a pellet, followed by pipetting and flow cytometry (FlowJo cytometric analysis software, Guava, Millipore, Darmstadt, Germany).
Mice were laparotomized and the spleen or liver were removed. The spleen or liver thus removed was separated into single cells using a Cell Strainer (SPL, Korea). These cells were collected in a microtube, followed by centrifugation at 4,000 rpm and 4° C. for 5 minutes. 0.5 ml of RBC lysis buffer was added thereto, followed by vortexing. The microtube was left at room temperature for 5 minutes, and then centrifuged at 4,000 rpm and 4° C. for 5 minutes. 0.5 ml of PBS was added to a pellet, followed by pipetting and flow cytometry (FlowJo cytometric analysis software, Guava, Millipore, Darmstadt, Germany).

[2] = tested on: Chang liver cells; experiment: Induction of apoptosis, TUNEL assay; format: cell-based, human; conditions: 10 μM, 24 hr, 2% fetal bovine serum
Description: (§1) Apoptotic cells were analyzed using terminal dUTP nick-end labeling (TUNEL) assay with In Situ Cell Death Detection kit TMR red (Roche, 4056 Basel, Switzerland). Cells were treated for 24 hr with 10 μM HS3B or HM165S3B proteins with 2% fetal bovine serum and apoptotic cells were visualized by TUNEL staining. Treated cells were washed with cold PBS two times, fixed in 4% paraformaldehyde (PFA, Junsei, Tokyo, Japan) for 1 hr at room temperature, and incubated in 0.1% Triton X-100 for 2 min on the ice. Cells were washed with cold PBS twice, and treated TUNEL reaction mixture for 1 hr at 37° C. in dark, washed cold PBS three times and observed by fluorescence microscopy (Nikon, Tokyo, Japan). Cisplatin® (IC50: 30 μM) was used for reference drug.

[3] = tested on: Huh7 cells; experiment: Induction of apoptosis, TUNEL assay; format: cell-based, human; conditions: 10 μM, 24 hr, 2% fetal bovine serum
Description: as §1

[4] = IV 600 μg/head FITC-labeled protein

B1: HM165S3B: His-tagged recombinant protein of aMTD165, human SOCS3 and solubilization domain B; prototype improved cell-permeable SOCS3 (protein)
chain: MGSSHHHHHHSSGLVPRGSHMALAVPVALAIVPVTHSKFPAAGMETSRPLDTSLRLKTFSSKSEYQLVVNAVRKLQESGFYWSAVTGGEANLLLSAEPAGTFLIRDSSDQRHFFTLSVKTQSGTKNLRIQCEGGSFSLQSDPRSTQPVPRFDCVLKLVHHYMETPPPGAPSFPSPPTEPSSEVPEQPSAQPLPGSPPRRAYYIYSGGEKIPLVLSRPLSSNVATLQHLCRKTVNGHLDSYEKVTQLPGPIREFLDQYDAPLGSMAEQSDKDVKYYTLEEIQKHKDSKSTWVILHHKVYDLTKFLEEHPGGEEVLGEQAGGDATENFEDVGHSTDARELSKTYIIGELHPDDRSKIAKPSETL
modifications: Amino acid sequence of HM165S3B
[1]; IV
  time maintained in tissues, depending on the tissues: 8 to 16 h
  time of delivery from blood to various tissues: ≤ 2 h
[1]; [4]
  distribution in pancreas tissue maintained up to: up to 8 hours
  permeability in hepatocytes maintained up to: up to 16 hours
  permeability in splenocytes maintained up to: up to 16 hours
  time of maximum permeability in PBMCs: 30 min
  time of maximum permeability in hepatocytes: 15 min
  time of maximum permeability in splenocytes: 2 h
  time of very high distribution in pancreas tissue: 2 h
[2]
  induction of apoptosis (TUNEL), Chang liver cells: did not induce apoptosis
[3]
  induction of apoptosis (TUNEL), Huh7: considerably efficient inducer of apoptosis
